Consider one substance from article PMC7069805.

A word on the stoichiometry N: it is the number of molecules, sites or subunits per partner or assembly.

This assay addresses MD39 stabilized gp140 HIV Env trimer (HIV). The experiment in a line: SEC-MALS. In general terms: In gel filtration, larger molecules generally elute earlier.

“MD39 stabilized gp140 HIV Env trimer (domain or fragment)” displayed a stoichiometry N of 3.
